Where “and” joins values, the source holds several entries; their conditions need not be identical. Equal entries are not always repeated.
Assays:
[1] = biological target: CFTR E51A expressed in Xenopus laevis oocytes (human) (UniProt P13569)
[2] = biological target: CFTR D58A expressed in Xenopus laevis oocytes (human) (UniProt P13569)
[3] = biological target: CFTR D47A expressed in Xenopus laevis oocytes (human) (UniProt P13569)
[4] = biological target: dephosphorylated human CFTR E1371Q (human) (UniProt P13569); experiment: cryo-EM structure; 30 uM dephosphorylated E1371Q CFTR in digitonin, 250 uM bovine PKA-C, 1 mM P-ATP/Mg2+ and 1 mM AMP-PNP/Mg2+; 200 mM NaCl, 20 mM HEPES pH 7.4, 1 mM DTT
[5] = biological target: dephosphorylated wild-type human CFTR (human) (UniProt P13569); experiment: cryo-EM structure; 30 uM dephosphorylated wild-type CFTR in digitonin, 250 uM bPKA-C, 2 mM AMP-PNP/Mg2+; 200 mM NaCl, 20 mM HEPES pH 7.4, 1 mM DTT
[6] = biological target: phosphorylated human CFTR E1371Q (human) (UniProt P13569); experiment: cryo-EM structure; phosphorylated E1371Q CFTR (~5 mg/mL) in digitonin with PKA-C (~10 mg/mL), 3 mM ATP/Mg2+; 200 mM NaCl, 20 mM HEPES pH 7.4, 1 mM DTT
[7] = biological target: WT CFTR expressed in Xenopus laevis oocytes (human) (UniProt P13569)

| Substance | half-time (t1/2) of macroscopic current activation by 300 nM bPKA-C in 2 mM ATP, relative to WT CFTR [1] [fold] | half-time (t1/2) of macroscopic current activation by 300 nM bPKA-C in 2 mM ATP, relative to WT CFTR [2] [fold] | half-time (t1/2) of macroscopic current activation by 300 nM bPKA-C in 2 mM ATP, relative to WT CFTR [3] [fold] | stoichiometry N (PKA-C per CFTR) [4] | stoichiometry N (PKA-C per CFTR) [5] | stoichiometry N (PKA-C per CFTR) [6] | half-time (t1/2) of current activation by 300 nM rPKA-C in 2 mM ATP, relative to 300 nM bPKA-C on WT CFTR [7] [fold] |
| --- | --- | --- | --- | --- | --- | --- | --- |
| protein kinase A catalytic subunit purified from bovine heart (from UniProt P00517 1-351) (enzyme) | 2 | 2 | 2 | 1 | 1 and 2 | 1 | – |
| recombinant bovine PKA-C, wild type (from UniProt P00517 1-351) (enzyme) | – | – | – | – | – | – | 6 |
